Assay results as given in patent US20190359687A1 (Bayer, published 2019).
Substitutions are numbered along the chain they refer to. Numbers in names are those of the source. No end group written: not given here.

T1: human glycophorin A on human red blood cells or red blood cell membranes (human, UniProt P02724 20-150)
T1 construct: whole, on cells; also called hRBC; human RBC membranes
T1 sequence (looked up): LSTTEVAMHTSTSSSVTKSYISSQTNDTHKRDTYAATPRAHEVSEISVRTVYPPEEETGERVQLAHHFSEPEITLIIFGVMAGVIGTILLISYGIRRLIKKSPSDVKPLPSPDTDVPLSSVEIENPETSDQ

T2: GP13 peptide of the human GPA ectodomain (human, not fully specified (N-terminus))
T2 peptide: PPEEETGE

T3: GP7 peptide of the human GPA ectodomain (human, not fully specified (N-terminus))
T3 peptide: SVRTVYPP

T4: GP14 peptide of the human GPA ectodomain (human, not fully specified (N-terminus))
T4 peptide: PEEETGER

T5: GP10 peptide of the human GPA ectodomain (human, not fully specified (N-terminus))
T5 peptide: TVYPPEEE

T6: GP11 peptide of the human GPA ectodomain (human, not fully specified (N-terminus))
T6 peptide: VYPPEEET

T7: GP9 peptide of the human GPA ectodomain (human, not fully specified (N-terminus))
T7 peptide: RTVYPPEE

T8: GP16 peptide of the human GPA ectodomain (human, not fully specified (N-terminus))
T8 peptide: EETGERVQ

T9: GP15 peptide of the human GPA ectodomain (human, not fully specified (N-terminus))
T9 peptide: EEETGERV

T10: GP12 peptide of the human GPA ectodomain (human, not fully specified (N-terminus))
T10 peptide: YPPEEETG

T11: GP8 peptide of the human GPA ectodomain (human, not fully specified (N-terminus))
T11 peptide: VRTVYPPE

B1: TPP-7790, affinity matured 6C12 Fab (Fab, V domains shown)
VH: EVQLVQSGAEVKKPGASVKVSCKASGYTFTTYAIHWVRQAPGQGLEWMGYINPSSGYTRYNPKFKHRVTMTRDKSTSTAYMELRSLRSDDTAVYYCWTGTRDYWGQGTTVTVSS
VL: DIQLTQSPSFLSASVGDRVTITCRASSSVRYIYWFQQKPGKAPKLLIYATSFLQSGVPSRFSGSGSGTEYTLTISSLQPEDFATYYCHQRNSFPYTFGQGTKLEIK
notes: Tested as Fab with a 6xHIS tag
B2: TPP-5906, humanized and germlined 6C12 Fab; VL: (S24R, A26S, S49A, P54Q, F95Y); VH: (I48M, D56G, D66G, L70M, T72R) (Fab, V domains shown)
VH: B1 VH with A33T, H66G, W97Q
VL: DIQLTQSPSFLSASVGDRVTITCRASSSVSYIYWFQQKPGKAPKLLIYATSTLQSGVPSRFSGSGSGTEYTLTISSLQPEDFATYYCHQRNSFPYTFGQGTKLEIKR
notes: The text says that a 6xHIS tag is present on the Fabs in the peptide ELISA; it is not in the printed chains

Key:
[1] = biological target: T1, human glycophorin A on human red blood …; test: Fab 7 ug/ml on intact human RBC, unbound Fab by ELISA; pre-dilution
Description: (§1) The binding of affinity matured Fab antibodies to intact human RBC was also measured. Human RBC were isolated from fresh anti-coagulated normal human blood by centrifugation through a ficol gradient and washing in PBS buffer. RBC diluted to 1/10th of normal hematocrit were incubated with purified Fab antibodies at a final concentration of 7 ug/ml for 1 hour at room temperature on a rotating shaker after which a sample was taken and the RBC were pelleted by centrifugation and the supernatant was collected. The remaining RBC suspension was diluted 200-fold in PBS buffer and incubated for a total of 2 hours at room temperature on a rotating shaker and samples were removed at 0, 5 min, 20 min, 1 h and 2 h and the RBC pelleted and the supernatant collected. The amount of Fab in the supernatants was then measured using an ELISA assay and the results used to calculate the percentage of the input Fab that was bound to the RBC. […] The percentage that remains bound after 200-fold dilution of the RBC suspension is an indication of the overall strength of the binding to human RBC.

[2] = biological target: T1, human glycophorin A on human red blood …; test: Fab on intact human RBC, unbound Fab by ELISA; 60 min after 200-fold dilution
[3] = biological target: T1, human glycophorin A on human red blood …; test: Fab on intact human RBC, unbound Fab by ELISA; 0 min after 200-fold dilution
Description: as §1

[4] = biological target: T1, human glycophorin A on human red blood …; test: Fab on intact human RBC, unbound Fab by ELISA; 120 min after 200-fold dilution
Description: as §1

[5] = biological target: T1, human glycophorin A on human red blood …; test: Fab on intact human RBC, unbound Fab by ELISA; 20 min after 200-fold dilution
Description: as §1

[6] = biological target: T2, GP13 peptide of the human GPA ectodomain; test: ELISA, Fab 0.05 ug/ml on biotin-peptide on streptavidin plate
Excerpt: (§2) These peptides were attached to the surface of a streptavidin coated plate via a biotin moiety that was present at the N-terminus of each peptide.

[7] = biological target: T3, GP7 peptide of the human GPA ectodomain; test: as above
Excerpt: as §2

[8] = biological target: T4, GP14 peptide of the human GPA ectodomain; test: as above
Excerpt: as §2

[9] = biological target: T5, GP10 peptide of the human GPA ectodomain; test: as above
Excerpt: as §2

[10] = biological target: T6, GP11 peptide of the human GPA ectodomain; test: as above
Excerpt: as §2

[11] = biological target: T12, GP5 peptide of the human GPA ectodomain (human, N-terminal biotin); test: as above
T12 construct: Residues 42 to 61 of the human GPA extracellular domain
Excerpt: as §2

[12] = biological target: T7, GP9 peptide of the human GPA ectodomain; test: as above
Excerpt: as §2

[13] = biological target: T8, GP16 peptide of the human GPA ectodomain; test: as above
Excerpt: as §2

[14] = biological target: T9, GP15 peptide of the human GPA ectodomain; test: as above
Excerpt: as §2

[15] = biological target: T10, GP12 peptide of the human GPA ectodomain; test: as above
Excerpt: as §2

[16] = biological target: T2, GP13 peptide of the human GPA ectodomain; test: ELISA, Fab 0.5 ug/ml on biotin-peptide on streptavidin plate
Excerpt: as §2

[17] = biological target: T3, GP7 peptide of the human GPA ectodomain; test: as above
Excerpt: as §2

[18] = biological target: T4, GP14 peptide of the human GPA ectodomain; test: as above
Excerpt: as §2

[19] = biological target: T5, GP10 peptide of the human GPA ectodomain; test: as above
Excerpt: as §2

[20] = biological target: T6, GP11 peptide of the human GPA ectodomain; test: as above
Excerpt: as §2

[21] = biological target: T12, GP5 peptide of the human GPA ectodomain; test: as above
Excerpt: as §2

[22] = biological target: T11, GP8 peptide of the human GPA ectodomain; test: as above
Excerpt: as §2

[23] = biological target: T7, GP9 peptide of the human GPA ectodomain; test: as above
Excerpt: as §2

[24] = biological target: T8, GP16 peptide of the human GPA ectodomain; test: as above
Excerpt: as §2

[25] = biological target: T9, GP15 peptide of the human GPA ectodomain; test: as above
Excerpt: as §2

[26] = biological target: T10, GP12 peptide of the human GPA ectodomain; test: as above
Excerpt: as §2

[27] = biological target: T1, human glycophorin A on human red blood …; test: Fab on intact human RBC, unbound Fab by ELISA; 5 min after 200-fold dilution
Description: as §1

Row | Binder | percentage of input antibody bound [1] [%] | percentage of input antibody bound [2] [%] | percentage of input antibody bound [3] [%] | percentage of input antibody bound [4] [%] | percentage of input antibody bound [5] [%] | binding signal in ELISA (relative light units) [6] [RLU] | binding signal in ELISA (relative light units) [7] [RLU] | binding signal in ELISA (relative light units) [8] [RLU] | binding signal in ELISA (relative light units) [9] [RLU] | binding signal in ELISA (relative light units) [10] [RLU] | binding signal in ELISA (relative light units) [11] [RLU] | binding signal in ELISA (relative light units) [12] [RLU] | binding signal in ELISA (relative light units) [13] [RLU] | binding signal in ELISA (relative light units) [14] [RLU] | binding signal in ELISA (relative light units) [15] [RLU] | binding signal in ELISA (relative light units) [16] [RLU] | binding signal in ELISA (relative light units) [17] [RLU] | binding signal in ELISA (relative light units) [18] [RLU] | binding signal in ELISA (relative light units) [19] [RLU] | binding signal in ELISA (relative light units) [20] [RLU] | other results
1 | B1 | 91 | 87 | 88 | 88 | 88 | 0 | 0 | -1 | 7 | 0 | 2880 | 7 | -1 | -1 | -1 | -1 | 1 | 0 | 38 | 1 | binding signal in ELISA (relative light units) [21]: 6990 RLU; binding signal in ELISA (relative light units) [22]: 3370 RLU; binding signal in ELISA (relative light units) [23]: 169 RLU; binding signal in ELISA (relative light units) [24]: 0 RLU; binding signal in ELISA (relative light units) [25]: 0 RLU; binding signal in ELISA (relative light units) [26]: 0 RLU; percentage of input antibody bound [27]: 89%
2 | B2 | 93 | 8 | 82 | 8 | 4 | -1 | -1 | -1 | 0 | -1 | 2000 | -1 | 0 | -1 | -1 | -1 | 0 | -1 | 0 | 0 | binding signal in ELISA (relative light units) [21]: 6680 RLU; binding signal in ELISA (relative light units) [22]: 1 RLU; binding signal in ELISA (relative light units) [23]: 1 RLU; binding signal in ELISA (relative light units) [24]: -1 RLU; binding signal in ELISA (relative light units) [25]: -1 RLU; binding signal in ELISA (relative light units) [26]: -1 RLU; percentage of input antibody bound [27]: 28%
